This note sets out measurements from publication doi:10.1101/2024.05.31.596772, “CAMSAP3 Forms Dimers via its α-helix Domain that Directly Stabilize Non-centrosomal Microtubule Minus Ends” (bioRxiv, 2024).

The stoichiometry N is a count of units in the complex or per binding partner.

The data set concerns the molecule itself. The data set is described as follows: SEC-MALS; static light detection of the purified GFP-tagged protein; dimer from the mass of the primary peak.

B1: GFP-CAMSAP3 (natural protein, UniProt Q80VC9 1-1252, looked up)
chain: MVEAAPAGSGPLRRTFLVPEIKSLDQYDFSRAKAAASLAWVLRAAFGGAEHVPPELWEPFYTDQYAQEHVKPPVTRLLLSAELYCRAWRQALPQLEPSPSPSALLALLARRGTVPSLPEHPVREADLKHQPILMGAHLAVIDALMVAFSFEWTKTLPGPLALSSLEHKLLFWVDTTVRRLQEKTEQEAAQRASPAAPLDGASPAQPSIRYRKDRAIARRAPCFPNVTTLQDLASGAALAATIHCYCPQLLRLEEVCLKDPMSVADSLYNLQLVQDFCASHLPRGCPLSLEDLLYVPPPLKVNLVVLLAEMYMCFEVLKPDFVQAKDLPDGHAVSPRNTETVPSQNNSGSSSPVFNFRHPLLSPGGPQSPLRGSTGSLKSSPSMSHMEALGKAWNRQLSRPLSQAVSFSTPFGLDSDVDVVMGDPVLLRSVSSDSLGPPRPVSTSSRNSAQPAPESGDLPTIEEALQIIHSAEPRLLPDGAADGSFYLHSPEGLSKPPLSPYPPEGASKPLSDRLNKAPIYISHPENPSKSSPCSTGEILKPPPPSEGSPKAVASSPAANNSEVKMTSFAERKKQLVKAEAESGLGSPTSTPVAPEALSSEMSELGARLEEKRRAIEAQKRRIEAIFAKHRQRLGKSAFLQVQPREAAGEAEEEAELGSVPGGERPAGEGQGEPSLRHKSVTFSPDLGPVPPEGLGDYNRAVSKLSAALSSLQRDMQRLTDQQQRLLAPPEAPGPAPPPAAWVIPGPATGPKAASPSPARRAPAARRSPGPGPSPTPRSPKHARPAELKLAPLTRVLTPPHDVDSLPHLRKFSPSQVPVQTRSSILLSEGTPPEEPTTKPALIEIPLASLGEPAADEEGDGSPPGAEDSLEEEASSEGEPRSGLGFFYKDEDKPEDEMAQKRASLLERQQRRVEEARRRKQWQEAEKEQKREEAARLAQEAPGLAFTTPVVASAAPVATLAPTTRAMAPAEEEVGPRRGDFTRLEYERRAQLKLMDDLDKVLRPRASGTGGPGRGGRRATRPRSGCCDDSALARSPARGLLGSRLSKVYSQSTLSLSTVANEAPNNLGVKRPTSRAPSPSGLMSPSRLPGSRERDWENGSNASSPASVPEYTGPRLYKEPSAKSNKFIIHNALSHCCLAGKVNEPQKNRILEEIEKSKANHFLILFRDSSCQFRALYTLSGETEELSRLAGYGPRTVTPAMVEGIYKYNSDRKRFTQIPAKTMSMSVDAFTIQGHLWQSKKPTTPKKGGGTPK
notes: CAMSAP3 (Nezha), full length; also called Nezha; CAMSAP3 full-length; source: Sf9 cells, purified
For the protein B1, the “stoichiometry N” value was 2.

B2: GFP-CAMSAP3 944F (domain or fragment, UniProt Q80VC9 944-1252, looked up)
chain: AFTTPVVASAAPVATLAPTTRAMAPAEEEVGPRRGDFTRLEYERRAQLKLMDDLDKVLRPRASGTGGPGRGGRRATRPRSGCCDDSALARSPARGLLGSRLSKVYSQSTLSLSTVANEAPNNLGVKRPTSRAPSPSGLMSPSRLPGSRERDWENGSNASSPASVPEYTGPRLYKEPSAKSNKFIIHNALSHCCLAGKVNEPQKNRILEEIEKSKANHFLILFRDSSCQFRALYTLSGETEELSRLAGYGPRTVTPAMVEGIYKYNSDRKRFTQIPAKTMSMSVDAFTIQGHLWQSKKPTTPKKGGGTPK
notes: source: Sf9 cells, purified
With B2, the “stoichiometry N” value came to 2.
